Publication PMC3817407
“And” between values parts separate entries of the source, which are not always exact repeats. Equal entries are not always repeated.

B1: AS33_423 (protein)
chain: MMAMSNTMPDPREPGDVEALLPWYAAGTLNARDARRVADALDRDPALARQYAVILEEYASTIELNESLGAPSSRAMQKLFAAIDAEPARAPGAGQGLGARFAGFFAGLSPKALAWSASVAGLALLLQAGLIGALLTWPHAAPVQTAAYQPQREVARAPASSPAPATVSPPAAAMADRAADAGKSTPPMVMAERSGGPVVRSLAPQSGPRVLVKFAPEARASEIAALLDQYNAVVVDSSRGGLFRLQFGTQSLSKQDQETLIGRLQKEPVVSVVLSAP
B2: AS25_1645 (protein)
chain: MNESFSQRQTDGDRRRGGDLEMKKNHTSHQHHTDSETPMGHNFEQFQRLSAYFDGEATPAERKEIQHLLDTDPQVKQQYQQLRQLKQALQLLPIPTSISAQYLGQRVLARLRRSQLRTLSLWGSGAIAALFVAGVMGQMPRLNFDRFAKNDPDQQPTAALVETSPQGEEALVVALNRPVLQIPKLATTESP
B3: AS27_4265 (protein)
chain: MTGHPDVAEIADLAEGLLPTTRTTEVRQHLESCELCADVYASLTEIQGLLGTLPAPAPMPDDVAARIDAALAAEPPLGIADGTRVSRETSTPADRPAGHARPSSTGPGRKDRRRGGRRRIAVLGAVAAAAAIGIGSVVVSSLTEDSSSGNTAREQQTAIADTFSEGRLKDRVTNLVADGSAENGSRTPRSFGMESENGGETAENHVFKQPTVPECIRKGIGRDDAVIATEPGVYKGREALLVVLPDATNDTQVTAYIVETACVDQPAVGKAKILLEHSYARS
B4: AS27_1331 (protein)
chain: MSAADKDPDKHSADADPPLTVELLADLQAGLLDDATAARIRSRVRSDPQAQQILRALNRVRRDVAAMGADPAWGPAARPAVVDSISAALRSARPNSSPGAAHAARPHVHPVRMIAGAAGLCAVATAIGVGAVVDAPPPAPSAPTTAQHITVSKPAPVIPLSRPQVLDLLHHTPDYGPPGGPLGDPSRRTSCLSGLGYPASTPVLGAQPIDIDARPAVLLVIPADTPDKLAVFAVAPHCSAADTGLLASTVVPRA
B5: AS31_34 (protein)
chain: MNKEKLSDHLKSEWKKIDQTANPSIPNQKELLHQLSQMKAEYRKKLLQEIILFVFCALMVVSAAILAFTQAPAVFIVLQVCVLAVLPILIAAEKKRHLGECEVKRG
B6: AS30_35 (protein)
chain: MDKRLQQLREEYKNVQIPKELDIIVEKALQQEPKKKRIVMWPTSAAIAAAILFTALVNINPDAAQAMSKIPVIGKIVKAITFIEIKEEKDQSSIDVKTPALSGLSNKELENSINEKYLKESQQLYKEFIQSTSKNKKGHLSIYSDYETVTDTPDLLSIRRNIETTQASSYTQSRYITIDKKNDILLTLKSLFKDERYIKVISQNIKEQMKQQMKEDPNKIYWLTDEDAEPFKTILPDQTFYITEDHKLVISFDEYEVAPGYMGVTEFTIPTGVISNLLVGERYIR
B7: AS33_375 (protein)
chain: MMALSKKMLEQEPSEIELLLPWHAAGTLNARDARRVEDALARDPELAKQYAAIRGEYEETIHLNESLGAPSARAMQKLFGAIDAEPARETGSLPLSARIATFFASLSPRTLAWSASLGAVALVLQAGIIGAVLMKTQPTTFQTASLSTSAPITRELGAAVAPARALVRFTPEARVADITALLDSYQASIIGDAKGGMFRLQFDKAMSQDELASLLGRMQREKFVNLAVAAP

What follows are binders tested against ECF27_1331.
B1 showed a fold repression of 8.68.
Work on B2 yielded a fold repression of 11.2.
B3 was tested, and the fold repression was 3.78.
B4 showed a fold repression of 3.32.
With B5 the fold repression was 2.57.
B6 was tested, and the fold repression was 2.39.
Binder B7 has a fold repression of 11.4.

Target: T1, ECF16_973
T1 chain: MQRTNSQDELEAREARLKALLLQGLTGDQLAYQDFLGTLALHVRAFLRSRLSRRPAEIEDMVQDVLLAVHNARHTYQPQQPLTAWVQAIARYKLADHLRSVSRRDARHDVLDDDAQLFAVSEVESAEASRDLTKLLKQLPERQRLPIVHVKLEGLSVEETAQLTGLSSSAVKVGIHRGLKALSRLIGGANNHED
For B1, the fold repression was 14.6.
B2 showed a fold repression of 5.41.
Work on B3 yielded a fold repression of 1.77.
B4 showed a fold repression of 5.57.
Work on B5 yielded a fold repression of 1.84.
With B6 the fold repression was 1.73.
Work on B7 yielded a fold repression of 9.87.

Target: T2, ECF25_1643
T2 chain: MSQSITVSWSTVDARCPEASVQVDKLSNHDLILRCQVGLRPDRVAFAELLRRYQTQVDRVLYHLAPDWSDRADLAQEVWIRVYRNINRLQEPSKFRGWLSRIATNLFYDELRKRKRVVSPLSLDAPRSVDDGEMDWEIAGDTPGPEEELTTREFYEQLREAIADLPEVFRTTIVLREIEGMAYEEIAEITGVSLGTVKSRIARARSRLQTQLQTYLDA
For B1, the fold repression was 3.19 and 2.96.
B2 was tested, and the fold repression was 19.5 and 19.2.
B3 was tested, and the fold repression was 1.63 and 1.17.
B4 was tested, and the fold repression was 2.81 and 2.4.
In the case of B5, the fold repression is reported as 2.25 and 1.91.
B6 was tested, and the fold repression was 1.46 and 1.19.
In the case of B7, the fold repression is reported as 5.97 and 4.93.

Target: T3, ECF33_423
T3 chain: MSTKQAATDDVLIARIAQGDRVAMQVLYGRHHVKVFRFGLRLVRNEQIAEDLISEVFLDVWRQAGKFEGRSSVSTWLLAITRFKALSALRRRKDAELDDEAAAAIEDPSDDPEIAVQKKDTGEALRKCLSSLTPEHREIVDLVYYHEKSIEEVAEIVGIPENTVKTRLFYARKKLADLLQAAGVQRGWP
Binder B1 has a fold repression of 84.3.
Binder B2 has a fold repression of 4.92.
With B3 the fold repression was 1.63.
B4 gave a fold repression of 5.1.
B5 gave a fold repression of 2.25.
For B6, the fold repression was 1.99.
Work on B7 yielded a fold repression of 113.

Target: T4, ECF02_2817
T4 chain: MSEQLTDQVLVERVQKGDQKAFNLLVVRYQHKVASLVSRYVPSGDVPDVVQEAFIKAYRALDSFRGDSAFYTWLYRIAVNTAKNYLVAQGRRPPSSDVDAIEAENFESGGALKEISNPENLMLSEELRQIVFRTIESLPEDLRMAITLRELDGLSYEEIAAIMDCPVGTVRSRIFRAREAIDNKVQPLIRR
B1 was tested, and the fold repression was 5.47.
Binder B2 has a fold repression of 9.88.
B3 gave a fold repression of 1.4.
Work on B4 yielded a fold repression of 2.82.
Work on B5 yielded a fold repression of 1.79.
With B6 the fold repression was 1.56.
B7 gave a fold repression of 5.75.

Target: T5, ECF20_992
T5 chain: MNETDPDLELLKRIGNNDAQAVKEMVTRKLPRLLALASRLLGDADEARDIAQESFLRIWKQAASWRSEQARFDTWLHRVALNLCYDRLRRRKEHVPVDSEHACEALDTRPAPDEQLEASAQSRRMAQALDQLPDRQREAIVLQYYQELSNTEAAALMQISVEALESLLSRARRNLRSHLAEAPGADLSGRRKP
In the case of B1, the fold repression is reported as 14.2.
Work on B2 yielded a fold repression of 5.73.
For B3, the fold repression was 15.2.
With B4 the fold repression was 6.81.
For B5, the fold repression was 2.35.
B6 gave a fold repression of 2.34.
B7 gave a fold repression of 20.7.

Target: T6, ECF28_1040
T6 chain: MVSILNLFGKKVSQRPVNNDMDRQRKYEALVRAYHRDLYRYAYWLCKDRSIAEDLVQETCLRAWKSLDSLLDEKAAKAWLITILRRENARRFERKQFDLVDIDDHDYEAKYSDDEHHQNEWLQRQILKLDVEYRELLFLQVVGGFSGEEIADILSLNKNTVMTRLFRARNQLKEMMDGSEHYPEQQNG
Binder B1 has a fold repression of 2.67.
B2 gave a fold repression of 2.95.
Binder B3 has a fold repression of 2.19.
B4 was tested, and the fold repression was 1.5.
Binder B5 has a fold repression of 2.22.
B6 gave a fold repression of 1.32.
For B7, the fold repression was 3.33.

Target: T7, ECF17_1458
T7 chain: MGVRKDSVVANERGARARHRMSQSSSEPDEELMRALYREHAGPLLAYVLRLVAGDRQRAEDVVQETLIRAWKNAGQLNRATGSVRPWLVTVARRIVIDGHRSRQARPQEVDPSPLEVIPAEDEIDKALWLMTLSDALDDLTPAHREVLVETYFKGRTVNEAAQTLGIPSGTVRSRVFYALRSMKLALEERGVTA
B1 was tested, and the fold repression was 8.41.
Binder B2 has a fold repression of 7.18.
Work on B3 yielded a fold repression of 2.47.
With B4 the fold repression was 2.79.
B5 gave a fold repression of 4.02.
Work on B6 yielded a fold repression of 1.52.
B7 showed a fold repression of 11.3.

Target: T8, ECF30_35
T8 chain: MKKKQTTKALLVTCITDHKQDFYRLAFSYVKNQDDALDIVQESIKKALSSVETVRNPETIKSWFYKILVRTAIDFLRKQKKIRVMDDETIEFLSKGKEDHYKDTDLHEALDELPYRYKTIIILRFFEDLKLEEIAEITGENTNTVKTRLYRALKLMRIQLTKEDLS
Work on B1 yielded a fold repression of 3.09.
Binder B2 has a fold repression of 3.43.
B3 was tested, and the fold repression was 5.45.
B4 was tested, and the fold repression was 3.98.
Work on B5 yielded a fold repression of 1.68.
B6 was tested, and the fold repression was 55.4.
In the case of B7, the fold repression is reported as 4.68.

Target: T9, ECF14_3200
T9 chain: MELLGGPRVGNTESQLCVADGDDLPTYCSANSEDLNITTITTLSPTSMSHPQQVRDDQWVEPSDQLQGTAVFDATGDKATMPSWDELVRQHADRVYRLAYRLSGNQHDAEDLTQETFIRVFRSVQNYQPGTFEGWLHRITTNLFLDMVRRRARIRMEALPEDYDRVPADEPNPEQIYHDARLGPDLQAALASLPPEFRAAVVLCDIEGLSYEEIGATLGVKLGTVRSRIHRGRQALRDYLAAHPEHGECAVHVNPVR
With B1 the fold repression was 12.2.
B2 was tested, and the fold repression was 14.2.
B3 gave a fold repression of 4.49.
B4 gave a fold repression of 2.68.
In the case of B5, the fold repression is reported as 2.7.
Binder B6 has a fold repression of 1.91.
Binder B7 has a fold repression of 17.8.

Target: T10, ECF31_34
T10 chain: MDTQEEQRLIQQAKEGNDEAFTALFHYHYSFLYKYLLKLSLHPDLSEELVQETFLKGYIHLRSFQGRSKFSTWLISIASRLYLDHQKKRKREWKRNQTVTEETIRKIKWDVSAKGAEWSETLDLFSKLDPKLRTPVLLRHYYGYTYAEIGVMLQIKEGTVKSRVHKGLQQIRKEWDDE
B1 was tested, and the fold repression was 8.35.
With B2 the fold repression was 5.66.
With B3 the fold repression was 1.67.
In the case of B4, the fold repression is reported as 5.7.
B5 gave a fold repression of 22.7.
B6 gave a fold repression of 2.22.
B7 showed a fold repression of 9.28.

Target: T11, ECF27_4265
T11 chain: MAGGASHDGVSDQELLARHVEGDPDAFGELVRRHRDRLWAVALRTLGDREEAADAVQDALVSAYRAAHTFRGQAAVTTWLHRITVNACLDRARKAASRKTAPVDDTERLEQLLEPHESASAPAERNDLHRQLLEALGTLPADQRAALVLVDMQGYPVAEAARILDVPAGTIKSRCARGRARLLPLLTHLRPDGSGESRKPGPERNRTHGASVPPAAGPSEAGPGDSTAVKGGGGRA
For B1, the fold repression was 5.38.
B2 showed a fold repression of 24.5.
B3 was tested, and the fold repression was 152.
B4 was tested, and the fold repression was 5.34.
B5 showed a fold repression of 1.48.
B6 gave a fold repression of 1.44.
In the case of B7, the fold repression is reported as 5.34.

Target: T12, ECF28_1088
T12 chain: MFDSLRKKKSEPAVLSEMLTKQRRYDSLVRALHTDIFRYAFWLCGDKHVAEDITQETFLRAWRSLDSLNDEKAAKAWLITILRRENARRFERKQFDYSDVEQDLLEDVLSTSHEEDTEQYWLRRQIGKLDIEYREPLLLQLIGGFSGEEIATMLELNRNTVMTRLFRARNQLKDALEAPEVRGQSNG
B1 was tested, and the fold repression was 3.17.
In the case of B2, the fold repression is reported as 3.89.
For B3, the fold repression was 2.14.
For B4, the fold repression was 1.37.
Binder B5 has a fold repression of 1.59.
In the case of B6, the fold repression is reported as 1.68.
With B7 the fold repression was 3.72.

Target: T13, ECF03_1198
T13 chain: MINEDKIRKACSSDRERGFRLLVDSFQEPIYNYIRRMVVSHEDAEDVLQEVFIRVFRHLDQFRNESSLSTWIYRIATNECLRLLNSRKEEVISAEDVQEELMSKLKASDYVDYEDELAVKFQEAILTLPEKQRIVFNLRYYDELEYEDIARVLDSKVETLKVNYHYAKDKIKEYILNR
B1 was tested, and the fold repression was 15.
B2 gave a fold repression of 7.37.
For B3, the fold repression was 2.19.
Binder B4 has a fold repression of 3.98.
Work on B5 yielded a fold repression of 2.96.
B6 was tested, and the fold repression was 1.96.
B7 showed a fold repression of 21.3.
